Values of other authors in publication PMC2900478.

Target: GABARAP (Homo sapiens) (UniProt O95166)
Chain of UniProt O95166 (O95166 1-116): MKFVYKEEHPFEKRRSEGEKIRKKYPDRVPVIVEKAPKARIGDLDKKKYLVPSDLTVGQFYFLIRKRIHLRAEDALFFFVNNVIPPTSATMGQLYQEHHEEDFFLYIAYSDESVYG

Kd: 100 µM
Substance: Nix (from UniProt O60238)
